This test deals with purified SARS-CoV-2 RBD (limits of the construct not stated) (SARS-CoV-2, UniProt P0DTC2 331-550). Description: told in the legend of the ELISA figure (Fig. 38). A general note: ELISA stands for enzyme-linked immunosorbent assay.

B1: S309-14 (S309 with VH W105F mutation) (antibody, V domains shown)
VH: not shown
VL: EIVLTQSPGTLSLSPGERATLSCRASQTVSSTSLAWYQQKPGQAPRLLIYGASSRATGIPDRFSGSGSGTDFTLTISRLEPEDFAVYYCQQHDTSLTFGGGTKVEIK
Consider B1, for which the binding result was “binds”.
